Laboratory results published in the PETadex activity labels (doi:10.1016/j.bbrc.2024.150833).

Substrate: pNPB
Assay: Proxy for plastic degradation [Absorbance @ 405nm]

B1: unnamed (protein)
chain: MTDVEIALSTGRVKGTDLGDVVRYYGIPYAEDPVGDLRFAAPVRREPWPGVRDATRPAATAQRLRFDPDPAIPEPIVAGTDILHVDVWAPTEGAGHPVLVWIHGGGWESGSSHQPWFVGTAFARAGIVVVSVGYRLGVEGFTAFPDAPDNRGVRDWIMALEWVRDEIAAFGGDPGQVTVSGQSAGGGAVLCLLASPLAAGLFHRGIASSPAVLRSPAAQAPKGTTAAGLAAGGRGAVDEFHRRLRKDNPFLMPFRPTVGDDTVPVPPLEGIGSGPGLDLPLLIGSTATEFEGVVRALPGAALVPGAAMILRSQELPTTGLRALARQSAGKSLRRAVGAVVDAATIHSTVVRAAETRVAAGAPTWVYDFRWSEGRGAVHCADLPFFWSVPEAANVRAYLGADAPPGLVDAMHRSWVDFVRSGDPGSPPYAPPGRRVQVWDEPPAVVEDGLADVRAVWWPAGGS
Proxy for plastic degradation (pH 5): 10.3 U/mg
Proxy for plastic degradation (pH 5.5): 15.4 U/mg
Proxy for plastic degradation (pH 6): 41.1 U/mg
Proxy for plastic degradation (pH 6.5): 61.7 U/mg
Proxy for plastic degradation (pH 7): 72 U/mg
Proxy for plastic degradation (pH 7.5): 77.1 U/mg
Proxy for plastic degradation (pH 8, 10 °C): 36 U/mg
Proxy for plastic degradation (pH 8, 20 °C): 46.3 U/mg
Proxy for plastic degradation (pH 8, 25 °C): 77.1 U/mg
Proxy for plastic degradation (pH 8, 30 °C): 92.6 U/mg
Proxy for plastic degradation (pH 8, 37 °C): 103 U/mg
Proxy for plastic degradation (pH 8, 40 °C): 84.9 U/mg
Proxy for plastic degradation (pH 8, 50 °C): 59.7 U/mg
Proxy for plastic degradation (pH 8, 60 °C): 20.6 U/mg
Proxy for plastic degradation (pH 8, 70 °C): 10.3 U/mg
Proxy for plastic degradation (pH 8.5): 92.6 U/mg
Proxy for plastic degradation (pH 9): 87.4 U/mg
